Reference: patent EP4810608A2

Experiments:
murine IL-11 (mouse) = murine IL-11 (mouse) (UniProt P47873); assay: cell-based or functional assay
human IL-11 (human) = human IL-11 (human) (UniProt P20809); assay: cell-based or functional assay
Chain of UniProt P20809 (P20809 22-199 limits assumed): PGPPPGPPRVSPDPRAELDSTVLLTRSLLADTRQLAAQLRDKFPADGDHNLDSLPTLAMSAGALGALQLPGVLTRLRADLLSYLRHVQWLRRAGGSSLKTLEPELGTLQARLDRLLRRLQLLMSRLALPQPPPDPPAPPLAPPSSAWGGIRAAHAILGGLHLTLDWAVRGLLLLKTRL

Chain of UniProt P47873 (P47873 22-199 limits assumed): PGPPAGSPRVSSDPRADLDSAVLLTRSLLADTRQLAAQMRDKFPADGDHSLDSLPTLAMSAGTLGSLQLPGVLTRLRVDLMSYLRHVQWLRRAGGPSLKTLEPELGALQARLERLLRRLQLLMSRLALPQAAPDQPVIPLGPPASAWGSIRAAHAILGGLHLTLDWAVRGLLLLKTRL

## neutralising anti-human IL-11 monoclonal antibody (Monoclonal Mouse IgG2A; Clone #22626; Catalog No. MAB218; R&D Systems, MN, USA)
Murine IL-11 (mouse)
  percentage of activated fibroblasts normalised to non-stimulated cultures (fold of non-stimulated cultures): 1.24
  percentage of activated mouse atrial fibroblasts with TGFβ1, against unstimulated cultures (fold of unstimulated cultures): 1.44
  percentage of activated mouse dermal fibroblasts with TGFβ1 (% activated fibroblasts): 39.4
Human IL-11 (human)
  percentage of activated (αSMA-positive) human atrial fibroblasts with TGFβ1 (% activated fibroblasts): 28.3
  percentage of activated fibroblasts normalised to non-stimulated cultures (fold of non-stimulated cultures): 0.99
  percentage of activated human atrial fibroblasts with TGFβ1, against unstimulated cultures (fold of unstimulated cultures): 0.89
